{"source": "paper PMC11188170", "about": "“A comprehensive analysis of the WRKY family in soybean and functional analysis of GmWRKY164-GmGSL7c in resistance to soybean mosaic virus”", "target": "GmWRKY164 (Glycine max, UniProt K7MND9 1-149)", "sequence (K7MND9 entry or part of it)": "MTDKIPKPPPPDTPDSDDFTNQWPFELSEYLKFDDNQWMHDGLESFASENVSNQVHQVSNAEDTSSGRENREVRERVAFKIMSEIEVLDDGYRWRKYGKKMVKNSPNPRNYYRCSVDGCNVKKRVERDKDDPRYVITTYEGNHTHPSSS", "assay": "EMSA; 6 ug protein; 200-fold unlabelled probe used as competitor; LightShift Chemiluminescent EMSA kit binding reaction, 20 min, 6% native PAGE; buffer, salt, pH and temperature not stated", "details": "protein: recombinant; tags: His; label: 5' biotin; blunt"}
{"binder": "GmGSL7c promoter W-box probe (dsDNA) DNA 1: TAGCCCAACTCATCAGAAGAAGGTCAATGTAATAGTA DNA 2: TACTATTACATTGACCTTCTTCTGATGAGTTGGGCTA", "values": [{"measurement": "binding result", "result": "binds"}]}
